Test results from article PMC6077130 (Heliyon, 2018).

Molecular target: T1, N-terminus of Glis3 (aa 1-653) fused to the Gal4 DBD (mouse, UniProt F6SGN4 1-653)
T1 sequence (looked up): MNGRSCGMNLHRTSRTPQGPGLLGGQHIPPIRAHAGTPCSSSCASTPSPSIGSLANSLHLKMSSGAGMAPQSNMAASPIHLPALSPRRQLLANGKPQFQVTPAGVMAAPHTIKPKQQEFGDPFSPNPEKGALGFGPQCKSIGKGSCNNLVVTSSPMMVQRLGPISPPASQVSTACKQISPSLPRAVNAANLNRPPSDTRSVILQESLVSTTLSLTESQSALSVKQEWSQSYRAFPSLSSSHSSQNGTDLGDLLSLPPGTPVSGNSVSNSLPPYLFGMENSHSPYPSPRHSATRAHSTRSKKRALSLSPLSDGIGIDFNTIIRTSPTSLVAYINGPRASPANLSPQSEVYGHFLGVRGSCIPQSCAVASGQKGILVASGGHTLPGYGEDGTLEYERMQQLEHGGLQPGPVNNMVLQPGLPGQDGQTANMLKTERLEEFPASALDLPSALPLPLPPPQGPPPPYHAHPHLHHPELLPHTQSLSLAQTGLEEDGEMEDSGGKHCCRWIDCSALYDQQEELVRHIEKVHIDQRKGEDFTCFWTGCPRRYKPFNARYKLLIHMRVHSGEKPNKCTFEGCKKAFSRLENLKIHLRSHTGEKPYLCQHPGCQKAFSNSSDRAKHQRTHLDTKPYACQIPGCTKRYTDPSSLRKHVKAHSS
Experiment: two-hybrid

B1: full length PIASy fused to the Gal4 AD (VP16-PIASy) (natural protein, UniProt Q9JM05 1-507, looked up)
chain: MAAELVEAKNMVMSFRVSDLQMLLGFVGRSKSGLKHELVTRALQLVQFDCSPELFKKIKELYETRYAKKSAEPGPQAPRPLDPLALHSMPRTPLSGPTVDYPVLYGKYLNGLGRLPTKTLKPEVRLVKLPFFNMLDELLKPTELVPQSAEKLQESPCIFALTPRQVEMIRNSRELQPGVKAVQVVLRICYSDTSCPQEDQYPPNIAVKVNHSYCSVPGYYPSNKPGVEPKRPCRPINLTHLMYLSSATNRITVTWGNYGKSYSVALYLVRQLTSSDLLQRLKTIGVKHPELCKALVKEKLRLDPDSEIATTGVRVSLICPLVKMRLSVPCRAETCAHLQCFDAVFYLQMNEKKPTWMCPVCDKPAAYDQLIIDGLLSKILSECEGADEIEFLAEGSWRPIRAEKEPSCSPQGPILVLGTSDANGLAPASSTPGIGSGLSGPGSAGSGAGAAGSLENGKTGADVVDLTLDSSSSSEDEDEDEDDDEDEDEGPRPKRRCPFQKGLVPAC
In the case of B1, the “fold increase in luciferase expression (two-hybrid, chimeras co-expressed)” value is reported as 1.5 fold.
